Reference: US11872270B2, “A*03 restricted peptides for use in immunotherapy against cancers and related methods” (Immatics Biotechnologies GmbH, priority 2018, dated 2024)

The substances below were run against HLA-A*03:01 (Homo sapiens, UniProt P04439) (assay: MHC binding assay (UV-ligand exchange, β2m ELISA)). Conditions: binding to HLA-A*03:01, UV-ligand exchange, β2m ELISA.
Source text: Candidate peptides for T cell based therapies according to the present invention were further tested for their MHC binding capacity (affinity). The individual peptide-MHC complexes were produced by UV-ligand exchange, where a UV-sensitive peptide is cleaved upon UV-irradiation and exchanged with the peptide of interest as analyzed. Only peptide candidates that can effectively bind and stabilize the peptide-receptive MHC molecules prevent dissociation of the MHC complexes. To determine the yield of the exchange reaction, an ELISA was performed based on the detection of the light chain (β2m) of stabilized MHC complexes. The assay was performed as generally described in Rodenko et al. (Rodenko et al., 2006) 96 well MAXISorp plates (NUNC) were coated over night with 2 ug/ml streptavidin in PBS at room temperature, washed 4× and blocked for 1 h at 37° C. in 2% BSA containing blocking buffer. Refolded HLA-A*02:01/MLA-001 monomers served as standards, covering the range of 15-500 ng/ml. Peptide-MHC monomers of the UV-exchange reaction were diluted 100-fold in blocking buffer. Samples were incubated for 1 h at 37° C., washed four times, incubated with 2 ug/ml HRP conjugated anti-β2m for 1 h at 37° C., washed again and detected with TMB solution that is stopped with […]. Absorption was measured at 450 nm. Candidate peptides that show a high exchange yield (preferably higher than 50%, most preferred higher than 75%) are generally preferred for a generation and production of antibodies or fragments thereof, and/or T cell receptors or fragments thereof, as they show sufficient avidity to the MHC molecules and prevent dissociation of the MHC complexes.

Peptide exchange (MHC class I binding score, peptide exchange yield) | Substance
++ (>20% = ++) | 30 (ILDSSLLK; listed as Homo sapiens) [compound 30]
++++ (>75% = ++++) | 31 (HAFFPKTHR; listed as Homo sapiens) [compound 31]
+ (>10% = +) | 32 (LLDAEPPILY; listed as Homo sapiens) [compound 32]
+++ (>50 = +++) | 34 (AIGTPLIGK; listed as Homo sapiens) [compound 34]
++ (>20% = ++) | 35 (VLLLLSLLH; listed as Homo sapiens) [compound 35]
++++ (>75% = ++++) | 36 (QIRAELMKK; listed as Homo sapiens) [compound 36]
++ (>20% = ++) | 37 (EVILTTKTPK; listed as Homo sapiens) [compound 37]
+ (>10% = +) | 38 (SLFPYYNNLY; listed as Homo sapiens) [compound 38]
++ (>20% = ++) | 39 (KTQFPQLK; listed as Homo sapiens) [compound 39]
+++ (>50 = +++) | 40 (ALNDRFAGY; listed as Homo sapiens) [compound 40]
++ (>20% = ++) | 41 (RLGAARGQLR; listed as Homo sapiens) [compound 41]
++++ (>75% = ++++) | 42 (RVCMTVDSLVNK; listed as Homo sapiens) [compound 42]
++++ (>75% = ++++) | 43 (TVYDSIWCNMK; listed as Homo sapiens) [compound 43]
+ (>10% = +) | 44 (HAFPPGPNY; listed as Homo sapiens) [compound 44]
++++ (>75% = ++++) | 47 (ALFGNALVFY; listed as Homo sapiens) [compound 47]
+++ (>50 = +++) | 48 (KGWNGQIFK; listed as Homo sapiens) [compound 48]
++++ (>75% = ++++) | 49 (ITAPLMPLGK; listed as Homo sapiens) [compound 49]
++ (>20% = ++) | 50 (HSAGIFSMY; listed as Homo sapiens) [compound 50]
+++ (>50 = +++) | 51 (VTADGALAMEK; listed as Homo sapiens) [compound 51]
+++ (>50 = +++) | 53 (KQALSLVRK; listed as Homo sapiens) [compound 53]
+++ (>50 = +++) | 54 (GVTITKTLK; listed as Homo sapiens) [compound 54]
+++ (>50 = +++) | 55 (RLSAESKDLLK; listed as Homo sapiens) [compound 55]
+++ (>50 = +++) | 56 (TTYYPSPLNK; listed as Homo sapiens) [compound 56]
++++ (>75% = ++++) | 58 (VLYRPQLEK; listed as Homo sapiens) [compound 58]
+++ (>50 = +++) | 59 (KINQYIIKK; listed as Homo sapiens) [compound 59]
+++ (>50 = +++) | 60 (VVFPFPVNKR; listed as Homo sapiens) [compound 60]

The remaining lines, values behind:

Substance | Peptide exchange (MHC class I binding score, peptide exchange yield)
1 (RVYPHKTLY; listed as Homo sapiens) [compound 1] | +++ (>50 = +++)
2 (KVMPKQTWK; listed as Homo sapiens) [compound 2] | +++ (>50 = +++)
3 (LLYGNGPGYVLK; listed as Homo sapiens) [compound 3] | ++++ (>75% = ++++)
6 (SIFGLAPGK; listed as Homo sapiens) [compound 6] | ++++ (>75% = ++++)
7 (RLVELAGQSLLK; listed as Homo sapiens) [compound 7] | ++++ (>75% = ++++)
9 (HVLYPVPLESY; listed as Homo sapiens) [compound 9] | +++ (>50 = +++)
10 (KARDLRTPK; listed as Homo sapiens) [compound 10] | +++ (>50 = +++)
11 (PLPRPGAVLK; listed as Homo sapiens) [compound 11] | ++ (>20% = ++)
12 (KVLTRNIEY; listed as Homo sapiens) [compound 12] | +++ (>50 = +++)
13 (AVAFFVLPSK; listed as Homo sapiens) [compound 13] | ++++ (>75% = ++++)
14 (VAFFVLPSK; listed as Homo sapiens) [compound 14] | ++ (>20% = ++)
15 (RLYAPVVNISRL; listed as Homo sapiens) [compound 15] | +++ (>50 = +++)
16 (KVFAEHKISY; listed as Homo sapiens) [compound 16] | +++ (>50 = +++)
17 (GGLSSQGVYY; listed as Homo sapiens) [compound 17] | ++ (>20% = ++)
18 (RLYYSFKNITK; listed as Homo sapiens) [compound 18] | ++++ (>75% = ++++)
19 (ALAAKLEVK; listed as Homo sapiens) [compound 19] | ++++ (>75% = ++++)
20 (LLPTVLIKK; listed as Homo sapiens) [compound 20] | +++ (>50 = +++)
21 (SSLAELIAK; listed as Homo sapiens) [compound 21] | ++ (>20% = ++)
22 (EGLFLLGCVK; listed as Homo sapiens) [compound 22] | +++ (>50 = +++)
23 (RLSPGPRAY; listed as Homo sapiens) [compound 23] | +++ (>50 = +++)
24 (KLETGVVKK; listed as Homo sapiens) [compound 24] | ++++ (>75% = ++++)
25 (KTWAHCMSY; listed as Homo sapiens) [compound 25] | ++++ (>75% = ++++)
26 (QLGYQAAVLK; listed as Homo sapiens) [compound 26] | +++ (>50 = +++)
27 (SGSTLECILYK; listed as Homo sapiens) [compound 27] | ++++ (>75% = ++++)
28 (STLECILYK; listed as Homo sapiens) [compound 28] | ++++ (>75% = ++++)
